The target in assay [1] is cytochrome f (PetA) with a C-terminal six-histidine tag, F. diplosiphon SF33 (Fremyella diplosiphon SF33). The assay can be described thus: co-purification.
Assay [2] has the same target. The assay is described as follows: co-purification. This is another data set of the same source.
Assay [3] has as its target cytochrome b6f complex of spinach (monomeric unit) (spinach) (UniProt P16013). The assay is described as follows: native gel or EMSA. In general terms: In EMSA bound probe runs differently from free probe, usually more slowly.

A word on the stoichiometry N: it is a count of units in the complex or per binding partner.

Like-named read-outs stand apart in the source and are kept apart here.

In the case of “cytochrome b6 (PetB), F. diplosiphon SF33 (natural protein)”, the figures for the stoichiometry N (relative to cyt f) in assay [1] and in assay [2] were 1.09 and 0.69, respectively.
Regarding “cytochrome b6f complex of spinach (monomeric unit) (from UniProt P16013 36-320; P00165 1-215; P08980 52-230; P00166 1-160)”, the stoichiometry N in assay [3] was found to be 2.
For “iron-sulfur protein (ISP), full length, F. diplosiphon SF33 (natural protein)”, the stoichiometry N (relative to cyt f) worked out at 0.17 in assay [1] and 0.21 in assay [2].
Turning to “subunit IV (PetD), F. diplosiphon SF33 (natural protein)”, the results for the stoichiometry N (relative to cyt f) in assay [1] and in assay [2] were 0.45 and 0.29, respectively.
